Source: patent US20140087995A1 (published 2014)
Where a chain is given by its changes, count along the chain named. Numbered stars: 1 amine (or outer) side, 2 acyl side, 3 side chain; on linkers, the order of the positions; unused ones are H or OH. Bridge positions count the residues as written; N and C are the ends. * marks the point of attachment. C20 diacid = O=C(O)CCCCCCCCCCCCCCCCCCC(=O)*; γGlu = O=C(O)[C@H](CCC(=O)[*:2])N[*:1]; AEEA = NCCOCCOCC(=O)O

T1: human amylin receptor (amylin 3(a) receptor: human calcitonin receptor with RAMP-3) (human, UniProt P30988 25-474; O60896 24-148)
T1 sequence (looked up) 1: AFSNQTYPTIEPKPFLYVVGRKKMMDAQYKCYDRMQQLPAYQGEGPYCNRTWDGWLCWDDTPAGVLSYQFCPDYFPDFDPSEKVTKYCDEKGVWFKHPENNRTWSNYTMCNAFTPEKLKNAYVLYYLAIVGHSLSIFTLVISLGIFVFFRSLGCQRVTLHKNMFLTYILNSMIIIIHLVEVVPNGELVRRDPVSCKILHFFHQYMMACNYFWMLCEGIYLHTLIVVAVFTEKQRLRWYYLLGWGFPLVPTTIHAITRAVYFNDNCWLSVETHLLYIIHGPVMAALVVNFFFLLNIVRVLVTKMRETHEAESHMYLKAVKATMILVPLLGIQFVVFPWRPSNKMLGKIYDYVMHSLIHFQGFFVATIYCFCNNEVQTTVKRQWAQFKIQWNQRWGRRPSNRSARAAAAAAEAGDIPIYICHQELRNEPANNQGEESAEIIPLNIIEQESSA
T1 sequence (looked up) 2: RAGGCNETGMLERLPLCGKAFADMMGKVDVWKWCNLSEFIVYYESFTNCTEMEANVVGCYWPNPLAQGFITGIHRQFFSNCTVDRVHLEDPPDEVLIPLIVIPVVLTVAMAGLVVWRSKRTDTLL

T2: human calcitonin receptor (human, UniProt P30988 25-474)
T2 sequence (looked up): T1 sequence (looked up) 1

B1: N^α1-[(4S)-4-carboxy-4-(19-carboxynonadecanoylamino)butanoyl]-[Glu14,Arg17,Pro21,Pro27]-h-amylin (peptide)
peptide: KCNTATCATQRLAEFLRHSSPNFGAIPSSTNVGSNTY
modifications: C20 diacid-gGlu on the alpha amino group of the N-terminal residue; disulfide bridge Cys2-Cys7; C-terminal amide
notes: also called compound 9
B2: N^α1-[2-[2-[2-[[2-[2-[2-[[(4S)-4-carboxy-4-(19-carboxynonadecanoylamino)butanoyl]amino]ethoxy]ethoxy]acetyl]amino]ethoxy]ethoxy]acetyl]-[Arg17,Pro21,Pro27]-h-am … (peptide)
peptide: B1 peptide with E14N
modifications: C20 diacid-gGlu-2xOEG on the alpha amino group of the N-terminal residue; disulfide bridge Cys2-Cys7; C-terminal amide
notes: also called compound 24
B3: N^α1-[2-[2-[2-[[2-[2-[2-[[(4S)-4-carboxy-4-(19-carboxynonadecanoylamino)butanoyl]amino]ethoxy]ethoxy]acetyl]amino]ethoxy]ethoxy]acetyl]-[Glu14,Arg17,Pro21,Pro27 … (peptide)
peptide: {C20 diacid-γGlu-AEEA-AEEA}-KCNTATCATQRLAEFLRHSSPNFGAIPSSTNVGSNTP-NH2
modifications: disulfide 2-7
SMILES: CC[C@H](C)[C@H](NC(=O)[C@H](C)NC(=O)CNC(=O)[C@H](Cc1ccccc1)NC(=O)[C@H](CC(N)=O)NC(=O)[C@@H]1CCCN1C(=O)[C@H](CO)NC(=O)[C@H](CO)NC(=O)[C@H](Cc1c[nH]cn1)NC(=O)[C@H](CCCNC(=N)N)NC(=O)[C@H](CC(C)C)NC(=O)[C@H](Cc1ccccc1)NC(=O)[C@H](CCC(=O)O)NC(=O)[C@H](C)NC(=O)[C@H](CC(C)C)NC(=O)[C@H](CCCNC(=N)N)NC(=O)[C@H](CCC(N)=O)NC(=O)[C@@H](NC(=O)[C@H](C)NC(=O)[C@@H]1CSSC[C@H](NC(=O)[C@H](CCCCN)NC(=O)COCCOCCNC(=O)COCCOCCNC(=O)CC[C@H](NC(=O)CCCCCCCCCCCCCCCCCCC(=O)O)C(=O)O)C(=O)N[C@@H](CC(N)=O)C(=O)N[C@@H]([C@@H](C)O)C(=O)N[C@@H](C)C(=O)N[C@@H]([C@@H](C)O)C(=O)N1)[C@@H](C)O)C(=O)N1CCC[C@H]1C(=O)N[C@@H](CO)C(=O)N[C@@H](CO)C(=O)N[C@H](C(=O)N[C@@H](CC(N)=O)C(=O)N[C@H](C(=O)NCC(=O)N[C@@H](CO)C(=O)N[C@@H](CC(N)=O)C(=O)N[C@H](C(=O)N1CCC[C@H]1C(N)=O)[C@@H](C)O)C(C)C)[C@@H](C)O
notes: also called compound 20
B4: N^α1-[(4S)-4-carboxy-4-(19-carboxynonadecanoylamino)butanoyl]-[Arg17,Pro21,Pro27,Glu35]-h-amylin (peptide)
peptide: B1 peptide with E14N, N35E
modifications: C20 diacid-gGlu on the alpha amino group of the N-terminal residue; disulfide bridge Cys2-Cys7; C-terminal amide
notes: also called compound 23

Molecular target: T1, human amylin receptor (amylin 3(a) …)
Assay: cell-based or functional assay

Row | Binder | hAmylin-R funct. EC50 [nM]
1 | B1 | 0.175
2 | B2 | 0.433
3 | B3 | 0.08
4 | B4 | 0.34

Molecular target: T2, human calcitonin receptor
Assay: cell-based or functional assay

Row | Binder | Ratio hCT/hAmylin funct. | hCTR funct. EC50 [nM]
5 | B1 | 7.4 | 1.29
6 | B2 | 23.1 | 10
7 | B3 | 3.6 | 0.285
8 | B4 | 8.9 | 3.02
